From patent publication US20050130227A1 (MUNIN, published 2005)

Assays:
[1] = biological target: T1, nuclear membrane protein nucleoporin p62 (mouse, UniProt Q63850 2-526); test: GST pull-down from mouse C1-1D nuclear extract, Western blot
T1 construct: Negative control protein; detected with anti-Nucleoporin p62 monoclonal clone 53; also called nuclear envelope protein Nucleoporin p62
T1 sequence (looked up): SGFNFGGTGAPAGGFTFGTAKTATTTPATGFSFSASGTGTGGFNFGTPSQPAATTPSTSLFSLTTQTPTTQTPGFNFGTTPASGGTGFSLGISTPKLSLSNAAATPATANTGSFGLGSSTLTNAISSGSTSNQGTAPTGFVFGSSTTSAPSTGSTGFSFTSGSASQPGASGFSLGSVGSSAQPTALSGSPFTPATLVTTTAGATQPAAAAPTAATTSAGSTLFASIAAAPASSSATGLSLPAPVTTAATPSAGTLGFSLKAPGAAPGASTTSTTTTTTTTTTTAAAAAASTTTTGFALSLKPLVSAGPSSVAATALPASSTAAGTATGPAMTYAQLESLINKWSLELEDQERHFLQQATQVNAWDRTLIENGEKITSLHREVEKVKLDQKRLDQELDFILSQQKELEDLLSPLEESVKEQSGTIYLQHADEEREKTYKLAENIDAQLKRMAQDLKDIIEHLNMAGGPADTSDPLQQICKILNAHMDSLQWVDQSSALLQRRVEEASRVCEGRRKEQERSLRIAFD
Excerpt: (A) Mouse C1-1D cell nuclear extract proteins were allowed to bind to bead immobilized GST-mGPBP fusion proteins. […] The antibodies used to probe these blots were raised against TBP, The C-terminal domain of RNA polymerase II (RNA pol II CTD), Transcription Fraction IIB (TFIIB), Transcription Fraction IIF RAP30 subunit (TFIIF RAP30), P300/CAAT Binding Protein (CBP), and the negative control antibodies against the nuclear envelope protein Nucleoporin p62. The estimated molecular weight of proteins in each band (in Kd) based on electrophoretic mobility in comparison to protein size markers were shown on the right by arrows. (B) In vivo binding of mGPBP was determined by immuno-coprecipitation analyses of cell lysates. […] The antibodies raised against TBP, RNA pol II CTD, TFIIB, CBP, or HA-tag were used as probes as indicated in each blot. The estimated molecular weight of proteins in each band (in Kd) based on electrophoretic mobility in comparison to protein size markers are shown on by arrows. The migration location of the HA-mGPBP fusion protein is also shown on the right of the panel with an arrow.
Nuclear extracts were prepared as previously described (Berger and Kimmel, 1987) with minor modifications. Mouse C1-1D Cells were collected and washed with 10 volumes of PBS once. […]

[2] = biological target: T1, nuclear membrane protein nucleoporin p62; test: co-immunoprecipitation with anti-HA antibodies from transfected C1-1D cells, Western blot
Excerpt: To examine whether the in vitro complexing of GPBP with transcription factors also occurs in vivo, we performed a co-immunoprecipitation experiment using an HA-tagged mGPBP expression construct in mouse C1-1D cells. The hemagglutinin antigen (HA)-tagged (Field, 1988[2]) mGPBP eukaryotic expression construct pCDNAHA-mGPBP was generated by inserting the (HA) tag coding sequence upstream of, and in frame with, the mGPBP cDNA's ORF in pCDNA-mGPBP. Anti-HA antibodies were used to immunoprecipitate nuclear extract proteins derived from the transfected cells. As a control, nuclear extract from cells transfected with the HA expression vector containing no GPBP-encoding sequences underwent a similar immunoprecipitation procedure.

B1: recombinant GST-mGPBP fusion protein (other)
chain: MAQHDFAPAWLNFPTPPSSTKSSLNFEKHSENFSWTENRYDVSRRRHNSSDGFDSGIGRPNGGNFGRKEKNGWRTHGRNGTENINHRGGYHGGNSRSRSSIFHSGKSQGLHENSIPDNETGRKEDKRERRQFEAEDFPSLNPEYEREPNQNKSLAAGVWGLHAQTHTYPTKKISQAPLLDYPPNPKSRTPRMLVIKKGNTKDLQLSGFPVAGNLQSQPVKNGTSPSVYKGLVPKPAVPPTKPTQWKSQTKENKVGTSFSHESTYGVGNFNTFKSTAKNISPSTNSVKECNRSNSSSPVDKLNQQPRLTKLTRMRSDKKSEFLKALKRDRVEEEHEDESHAGSEKDDDSFNLHNSNTTHQERDINRNFDENEIPQENGNASIISQQIIRSSTFPQTDVLSSSLEAEHRLLKEMGWQEDSENDETCAPLTEDEMREFQVISEQLQKNGLRKNGILKNGLICDFKFGPWKNSTFKPTIENDDTETSSSDTSDDDDV
notes: also called immobilized recombinant mGPBP; bead immobilized GST-mGPBP fusion proteins; not shown: N-terminal glutathione S-transferase (GST) carrier and the vector-encoded linker of pGEX-4T-1 between GST and the insert
binding result [1]: no binding

B2: HA-tagged mGPBP (other)
chain: B1 chain
notes: Expressed from pCDNAHA-mGPBP in transfected mouse C1-1D cells; whole mGPBP ORF; also called HA-mGPBP; HA-tag fused to mGPBP; not shown: hemagglutinin antigen (HA) tag upstream of and in frame with the ORF
binding result [2]: no binding
